The Kd is the concentration at which binding is half-saturated.

The target of this experiment is human immunoglobulin G (hIgG) (human). As to the kind of experiment: sandwich ELISA, hIgG coated on plate, CD64 titrated, monovalent fit. (In general: ELISA stands for enzyme-linked immunosorbent assay.)

In turn, “Flag-CD64 (from UniProt P12314 16-374) (receptor)” displayed a Kd of 0.0536 nM. The result for “recombinant wild-type CD64 (from UniProt P12314 16-374) (receptor)” reads 0.0456 nM.

Values taken from patent US20240299529A1.
